The target of test [1] is T1, spectrin-like repeats R1-R4 (residues 267-749) of chicken smooth muscle α-actinin (chicken, UniProt P05094 267-749).
T1 construct: range 267-749; Expressed as a bait (EG202) or prey (JG4-5) fusion protein in the yeast two-hybrid assay; also called α-actinin (R1-R4)
Nature of the test: yeast two-hybrid. The method, then:
(§1) The COOH-terminal construct of myotilin was subcloned from a partial cDNA sequence obtained from the skeletal muscle library screen. The authentity of the constructs was verified by sequencing. The genotype of the S. cerevisiae strain BOY1, kindly provided by P. Ljungdahl, Ludwig Institute for Cancer Research, Stockholm, Sweden, is MATαhis3 trp1 leu2::6LexAop-LEU2 URA3::8LexAop-Gal1-LacZ. Boy1 mating type a was made using the YCPHO CUT4 plasmid. Yeast strains were grown at 30° C. in rich medium or in synthetic minimal medium with appropriate amino acid supplements. Bait and prey constructs were transformed into BOY1-yeast of both a and a mating type using the TRAFO protocol and plated on selection plates. Clones were grown to late logarithmic phase in selective medium. For analysis of fusion protein expression, yeast cells from 1 ml of overnight culture were lysed in reducing Laemmli sample buffer, the samples were boiled and analyzed by SDS-PAGE and immunoblotting. Baits and preys were grown on selection plates, replica plated together on rich media plates for mating overnight and replica plated on double (tryptophane and histidine) or triple (tryptophane, histidine and leucine) selection with or without 5-bromo-4-chloro-3-indolyl-β-D-galactopyranoside (X-gal)(Boehringer) for selection of interactions.

The target of test [2] is T2, myotilin (full length, 498 residues) (human, UniProt Q9UBF9 1-498).
T2 construct: In the yeast two-hybrid assay, full-length myotilin was expressed as a bait (EG202) or prey (JG4-5) fusion protein; In Western blots and staining it was the endogenous muscle protein; also called full-length myotilin
T2 sequence: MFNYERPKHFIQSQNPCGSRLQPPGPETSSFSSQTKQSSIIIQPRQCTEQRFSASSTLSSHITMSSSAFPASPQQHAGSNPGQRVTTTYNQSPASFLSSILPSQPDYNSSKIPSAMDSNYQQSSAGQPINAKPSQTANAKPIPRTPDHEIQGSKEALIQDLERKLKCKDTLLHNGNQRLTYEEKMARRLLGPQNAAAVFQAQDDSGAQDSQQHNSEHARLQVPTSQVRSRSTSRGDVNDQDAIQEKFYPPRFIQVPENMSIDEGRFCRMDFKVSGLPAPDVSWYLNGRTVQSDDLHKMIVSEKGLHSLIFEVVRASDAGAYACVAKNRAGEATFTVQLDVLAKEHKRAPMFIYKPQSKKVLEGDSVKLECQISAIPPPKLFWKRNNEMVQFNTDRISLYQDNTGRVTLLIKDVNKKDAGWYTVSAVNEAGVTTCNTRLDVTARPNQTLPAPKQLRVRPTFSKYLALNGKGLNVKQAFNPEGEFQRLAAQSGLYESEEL
Nature of the test: yeast two-hybrid. The method, then:
as §1

T1 sequence (P05094 267-749 limits assumed): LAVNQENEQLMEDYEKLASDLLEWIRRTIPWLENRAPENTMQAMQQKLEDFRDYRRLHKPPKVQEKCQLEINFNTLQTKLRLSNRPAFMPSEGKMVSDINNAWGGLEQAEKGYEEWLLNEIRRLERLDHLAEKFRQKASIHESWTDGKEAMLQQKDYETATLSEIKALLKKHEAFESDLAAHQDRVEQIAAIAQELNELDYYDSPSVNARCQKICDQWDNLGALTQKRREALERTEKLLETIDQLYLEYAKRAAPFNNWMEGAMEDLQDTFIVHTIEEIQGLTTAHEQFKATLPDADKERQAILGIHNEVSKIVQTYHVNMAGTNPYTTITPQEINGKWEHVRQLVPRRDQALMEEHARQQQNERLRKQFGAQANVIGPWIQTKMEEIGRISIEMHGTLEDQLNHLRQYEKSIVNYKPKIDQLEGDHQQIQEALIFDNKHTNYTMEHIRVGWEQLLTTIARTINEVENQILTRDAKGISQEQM

B1: myotilin215-498 (other)
chain: SEHARLQVPTSQVRSRSTSRGDVNDQDAIQEKFYPPRFIQVPENMSIDEGRFCRMDFKVSGLPAPDVSWYLNGRTVQSDDLHKMIVSEKGLHSLIFEVVRASDAGAYACVAKNRAGEATFTVQLDVLAKEHKRAPMFIYKPQSKKVLEGDSVKLECQISAIPPPKLFWKRNNEMVQFNTDRISLYQDNTGRVTLLIKDVNKKDAGWYTVSAVNEAGVTTCNTRLDVTARPNQTLPAPKQLRVRPTFSKYLALNGKGLNVKQAFNPEGEFQRLAAQSGLYESEEL
notes: Expressed in the yeast two-hybrid assay as a prey fusion protein in JG4-5; it could not be expressed as a bait; also called NH2-terminal deletion construct containing the Ig-domains
For B1, the binding result in test [1] is listed as “no binding”; in test [2] it was “binds”.

For the origin of these results see patent US6458929 (LICENTIA, dated 2002).
